Reference: paper PMC5173487 (Nature immunology, 2016)
Values belong to the binder of their own block, whether it stands above or below them.

Legend:
[1] = target: T1, His-tagged EPRS (amino acids 1–196) (human (by GenBank NM_004446.2), UniProt P07814 1-196); assay: pull-down
T1 sequence (looked up): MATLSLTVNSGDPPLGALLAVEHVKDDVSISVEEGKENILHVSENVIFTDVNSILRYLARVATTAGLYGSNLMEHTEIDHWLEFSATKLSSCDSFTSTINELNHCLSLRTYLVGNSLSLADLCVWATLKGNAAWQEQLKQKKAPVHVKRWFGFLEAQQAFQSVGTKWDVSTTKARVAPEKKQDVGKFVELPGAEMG

[2] = target: GST-fused MAVS (amino acids 460–540) (UniProt Q7Z434 460-540); assay: pull-down
GST-fused MAVS (amino acids 460–540), sequence (Q7Z434 460-540): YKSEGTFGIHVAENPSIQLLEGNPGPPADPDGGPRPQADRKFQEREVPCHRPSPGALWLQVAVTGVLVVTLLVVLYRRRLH

binding result [1]: binds
B1: GST-fused PCBP2 (amino acids 11–82) (domain or fragment, UniProt Q15366 11-82, looked up)
chain: NVTLTIRLLMHGKEVGSIIGKKGESVKKMREESGARINISEGNCPERIITLAGPTNAIFKAFAMIIDKLEED

binding result [2]: binds
B2: His-tagged PCBP2 (amino acids 11–82) (domain or fragment, UniProt Q15366 11-82, looked up)
chain: B1 chain
